B1: human PDGF-BB-PlGF2123-144 (ligand)
chain: SLGSLTIAEPAMIAECKTRTEVFEISRRLIDRTNANFLVWPPCVEVQRCSGCCNNRNVQCRPTQVQLRPVQVRKIEIVRKKPIFKKATVTLEDHLACKCETVAAARPVTRRRPKGRGKRRREKQRPTDCHL
B2: human BMP-2 (ligand)
chain: QAKHKQRKRLKSSCKRHPLYVDFSDVGWNDWIVAPPGYHAFYCHGECPFPLADHLNSTNHAIVQTLVNSVNSKIPKACCVPTELSAISMLYLDENEKVVLKNYQDMVVEGCGCR
B3: human BMP-2-PlGF2123-144* (ligand)
chain: QAKHKQRKRLKSSCKRHPLYVDFSDVGWNDWIVAPPGYHAFYCHGECPFPLADHLNSTNHAIVQTLVNSVNSKIPKACCVPTELSAISMLYLDENEKVVLKNYQDMVVEGCGCRRRPKGRGKRRREKQRPTDSHL

How the values were obtained:
Assay in all cases: ELISA; cytokine coated, ECM protein 0.02 to 320 nM, KD by non-linear fit
[1] = target: Tenascin C
Tenascin C, sequence (P24821 23-2201): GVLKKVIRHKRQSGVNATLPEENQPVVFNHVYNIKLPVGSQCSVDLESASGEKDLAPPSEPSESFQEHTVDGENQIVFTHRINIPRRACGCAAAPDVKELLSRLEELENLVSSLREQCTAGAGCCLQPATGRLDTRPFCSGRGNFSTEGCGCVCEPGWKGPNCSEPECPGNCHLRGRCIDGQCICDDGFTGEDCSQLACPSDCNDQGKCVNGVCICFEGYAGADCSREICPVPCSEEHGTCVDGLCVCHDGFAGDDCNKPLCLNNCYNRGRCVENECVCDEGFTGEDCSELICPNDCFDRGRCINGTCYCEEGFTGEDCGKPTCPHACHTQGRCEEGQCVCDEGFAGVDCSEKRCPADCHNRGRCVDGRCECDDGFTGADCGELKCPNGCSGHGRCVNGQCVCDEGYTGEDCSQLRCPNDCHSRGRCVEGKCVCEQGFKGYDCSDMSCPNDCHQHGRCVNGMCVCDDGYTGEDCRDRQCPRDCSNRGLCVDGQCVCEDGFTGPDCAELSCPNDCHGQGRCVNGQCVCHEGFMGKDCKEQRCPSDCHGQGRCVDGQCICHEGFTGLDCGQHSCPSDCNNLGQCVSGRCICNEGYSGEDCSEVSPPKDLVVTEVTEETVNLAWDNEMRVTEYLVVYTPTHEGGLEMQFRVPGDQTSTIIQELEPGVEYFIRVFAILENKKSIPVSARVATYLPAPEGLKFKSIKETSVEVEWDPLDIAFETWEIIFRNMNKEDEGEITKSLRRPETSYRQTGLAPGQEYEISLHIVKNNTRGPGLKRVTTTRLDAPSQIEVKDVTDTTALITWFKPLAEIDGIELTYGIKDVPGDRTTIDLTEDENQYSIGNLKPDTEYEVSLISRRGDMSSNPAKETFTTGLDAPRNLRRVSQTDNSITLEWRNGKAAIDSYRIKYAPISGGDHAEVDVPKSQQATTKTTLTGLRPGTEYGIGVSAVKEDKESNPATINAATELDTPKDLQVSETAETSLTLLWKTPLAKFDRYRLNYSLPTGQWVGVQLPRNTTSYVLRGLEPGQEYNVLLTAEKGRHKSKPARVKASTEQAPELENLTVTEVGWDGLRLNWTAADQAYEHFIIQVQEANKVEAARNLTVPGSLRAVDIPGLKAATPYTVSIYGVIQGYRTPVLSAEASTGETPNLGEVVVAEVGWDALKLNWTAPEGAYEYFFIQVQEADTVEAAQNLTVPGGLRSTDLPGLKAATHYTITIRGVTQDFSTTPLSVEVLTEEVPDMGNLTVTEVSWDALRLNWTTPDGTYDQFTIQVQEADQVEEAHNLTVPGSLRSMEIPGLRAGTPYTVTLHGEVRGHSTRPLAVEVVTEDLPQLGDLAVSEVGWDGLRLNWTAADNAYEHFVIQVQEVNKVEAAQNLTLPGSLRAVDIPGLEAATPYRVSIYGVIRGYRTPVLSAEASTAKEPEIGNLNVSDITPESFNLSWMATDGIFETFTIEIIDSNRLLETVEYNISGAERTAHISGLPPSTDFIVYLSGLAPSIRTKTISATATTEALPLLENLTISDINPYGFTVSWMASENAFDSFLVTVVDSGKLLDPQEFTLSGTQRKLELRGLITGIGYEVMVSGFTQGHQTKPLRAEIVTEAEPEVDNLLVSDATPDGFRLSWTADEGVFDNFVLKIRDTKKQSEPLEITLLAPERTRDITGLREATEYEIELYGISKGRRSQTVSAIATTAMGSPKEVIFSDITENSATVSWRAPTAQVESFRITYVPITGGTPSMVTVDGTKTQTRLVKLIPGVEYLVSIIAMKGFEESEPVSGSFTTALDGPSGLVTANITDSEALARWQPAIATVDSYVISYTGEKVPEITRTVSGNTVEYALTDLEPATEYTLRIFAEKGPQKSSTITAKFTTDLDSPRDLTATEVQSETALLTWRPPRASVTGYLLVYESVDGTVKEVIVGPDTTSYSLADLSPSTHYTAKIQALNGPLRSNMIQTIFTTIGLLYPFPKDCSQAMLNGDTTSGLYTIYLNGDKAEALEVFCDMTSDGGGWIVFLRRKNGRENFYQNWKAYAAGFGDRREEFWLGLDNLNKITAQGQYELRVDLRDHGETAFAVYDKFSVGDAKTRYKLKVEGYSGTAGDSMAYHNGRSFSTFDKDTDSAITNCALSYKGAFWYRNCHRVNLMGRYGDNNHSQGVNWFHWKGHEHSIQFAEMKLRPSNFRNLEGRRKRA

[2] = target: Osteopontin
[3] = target: Fibronectin
Fibronectin, sequence (P02751 32-2477): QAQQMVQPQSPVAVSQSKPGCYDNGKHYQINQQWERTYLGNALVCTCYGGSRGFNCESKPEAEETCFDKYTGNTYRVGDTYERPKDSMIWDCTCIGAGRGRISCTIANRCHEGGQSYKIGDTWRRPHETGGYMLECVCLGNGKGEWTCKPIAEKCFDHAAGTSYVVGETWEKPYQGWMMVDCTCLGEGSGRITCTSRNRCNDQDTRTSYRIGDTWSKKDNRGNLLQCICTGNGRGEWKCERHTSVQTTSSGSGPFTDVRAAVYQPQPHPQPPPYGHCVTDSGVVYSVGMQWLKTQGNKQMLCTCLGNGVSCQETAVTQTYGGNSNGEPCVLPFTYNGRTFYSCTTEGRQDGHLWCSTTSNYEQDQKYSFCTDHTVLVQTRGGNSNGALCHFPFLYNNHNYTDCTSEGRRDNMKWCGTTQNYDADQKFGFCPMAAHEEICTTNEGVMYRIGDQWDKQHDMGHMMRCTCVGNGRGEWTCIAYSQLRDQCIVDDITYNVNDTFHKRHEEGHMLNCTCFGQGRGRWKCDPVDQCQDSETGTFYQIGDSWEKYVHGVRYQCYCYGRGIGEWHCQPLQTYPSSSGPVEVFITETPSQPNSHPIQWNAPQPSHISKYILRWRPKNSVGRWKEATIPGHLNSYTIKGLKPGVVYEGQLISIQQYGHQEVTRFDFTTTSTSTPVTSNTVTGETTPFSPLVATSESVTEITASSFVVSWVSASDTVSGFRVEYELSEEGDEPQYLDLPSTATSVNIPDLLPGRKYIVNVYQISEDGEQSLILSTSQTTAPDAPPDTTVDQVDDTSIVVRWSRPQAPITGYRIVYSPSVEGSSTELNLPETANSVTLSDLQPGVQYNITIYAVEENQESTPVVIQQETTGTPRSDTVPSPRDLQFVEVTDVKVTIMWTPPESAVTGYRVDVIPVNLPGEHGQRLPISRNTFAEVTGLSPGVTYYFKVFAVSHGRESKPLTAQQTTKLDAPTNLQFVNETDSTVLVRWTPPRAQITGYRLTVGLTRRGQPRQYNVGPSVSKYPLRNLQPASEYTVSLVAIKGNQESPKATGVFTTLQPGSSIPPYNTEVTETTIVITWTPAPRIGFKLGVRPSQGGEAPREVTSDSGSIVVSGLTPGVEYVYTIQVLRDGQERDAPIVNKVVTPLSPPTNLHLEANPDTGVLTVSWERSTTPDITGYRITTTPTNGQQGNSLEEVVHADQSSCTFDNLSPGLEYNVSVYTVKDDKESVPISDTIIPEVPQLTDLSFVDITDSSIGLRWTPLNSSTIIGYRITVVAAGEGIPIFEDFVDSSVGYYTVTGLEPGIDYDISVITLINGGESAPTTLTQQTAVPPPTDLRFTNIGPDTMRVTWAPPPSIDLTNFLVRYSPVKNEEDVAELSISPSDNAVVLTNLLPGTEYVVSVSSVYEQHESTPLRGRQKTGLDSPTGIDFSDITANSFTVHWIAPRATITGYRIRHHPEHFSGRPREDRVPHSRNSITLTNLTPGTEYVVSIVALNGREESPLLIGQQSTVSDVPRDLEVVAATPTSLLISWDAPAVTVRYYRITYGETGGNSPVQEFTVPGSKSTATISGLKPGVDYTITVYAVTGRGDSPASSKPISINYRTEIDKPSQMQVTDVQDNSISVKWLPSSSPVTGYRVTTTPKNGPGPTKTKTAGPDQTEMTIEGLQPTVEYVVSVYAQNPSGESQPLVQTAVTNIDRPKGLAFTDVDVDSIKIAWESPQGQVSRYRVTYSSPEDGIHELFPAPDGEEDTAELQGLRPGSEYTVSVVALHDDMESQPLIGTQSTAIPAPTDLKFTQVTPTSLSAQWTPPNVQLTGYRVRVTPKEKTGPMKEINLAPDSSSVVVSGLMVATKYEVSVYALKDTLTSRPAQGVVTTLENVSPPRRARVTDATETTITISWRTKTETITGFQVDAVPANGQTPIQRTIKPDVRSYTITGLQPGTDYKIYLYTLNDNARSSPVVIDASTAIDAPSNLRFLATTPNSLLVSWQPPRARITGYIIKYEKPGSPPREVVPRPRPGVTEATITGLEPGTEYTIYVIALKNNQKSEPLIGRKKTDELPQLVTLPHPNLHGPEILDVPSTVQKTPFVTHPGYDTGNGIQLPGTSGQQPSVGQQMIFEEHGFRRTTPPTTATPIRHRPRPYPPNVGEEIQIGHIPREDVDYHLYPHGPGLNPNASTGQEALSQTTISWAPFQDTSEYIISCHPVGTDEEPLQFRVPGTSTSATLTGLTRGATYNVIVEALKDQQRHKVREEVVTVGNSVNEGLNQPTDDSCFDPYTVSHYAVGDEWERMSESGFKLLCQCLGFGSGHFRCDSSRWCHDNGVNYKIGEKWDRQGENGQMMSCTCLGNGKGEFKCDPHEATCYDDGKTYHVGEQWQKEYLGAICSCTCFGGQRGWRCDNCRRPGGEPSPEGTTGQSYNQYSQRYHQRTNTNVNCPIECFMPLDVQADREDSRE

[4] = target: Vitronectin
Vitronectin, sequence (P04004 20-478): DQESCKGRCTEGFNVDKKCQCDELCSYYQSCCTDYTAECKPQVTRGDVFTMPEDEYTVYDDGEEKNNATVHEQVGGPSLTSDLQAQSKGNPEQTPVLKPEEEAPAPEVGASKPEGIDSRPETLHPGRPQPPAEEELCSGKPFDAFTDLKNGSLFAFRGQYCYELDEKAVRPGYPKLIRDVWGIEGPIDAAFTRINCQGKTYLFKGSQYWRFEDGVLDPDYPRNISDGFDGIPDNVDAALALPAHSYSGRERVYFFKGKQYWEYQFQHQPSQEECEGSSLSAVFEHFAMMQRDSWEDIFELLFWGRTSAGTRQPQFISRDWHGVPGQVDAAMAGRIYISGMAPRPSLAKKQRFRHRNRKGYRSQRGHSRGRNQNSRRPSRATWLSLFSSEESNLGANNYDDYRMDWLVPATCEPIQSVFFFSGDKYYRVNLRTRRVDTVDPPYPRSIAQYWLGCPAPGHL

[5] = target: Fibrinogen

| Binder | Kd [1] | Kd [2] | Kd [3] | Kd [4] | Kd [5] |
| --- | --- | --- | --- | --- | --- |
| B1 | 6.3 nM | 3.3 nM | 4.5 nM | 1.2 nM | 3.2 nM |
| B2 | 25.5 nM | – | 19.2 nM | 94.7 nM | 47.1 nM |
| B3 | 6.9 nM | 11.2 nM | 5.2 nM | 2.4 nM | 2 nM |
